Tests used:
[1] = tested on: double stranded RNA substrate; test: Nucleic acid unwinding activity, scintillation proximity assay; format: biochemical
Protocol: The newly engineered single-chain recombinant His-NS4A21-32-GSGS-NS33-631 (SEQ ID NO: 4) was assayed for nucleic acid unwinding activity using a scintillation proximity assay (SPA, Amersham Life Science Inc., Arlington Height, Ill.). The unwinding activity present in this covalent His-NS4A21-32-GSGS-NS33-631 complex was compared with that of the full length His-NS31-631-NS4A1-54 complex under their corresponding optimal buffer conditions. The double stranded RNA substrate (Oligos, Etc., Inc. Wilsonville, Oreg.) used in the assay contained a template 5′-GCUCGCCCGGGGAUCCUCUAGGAAUACACGUUCGAU-3′ (SEQ ID NO: 121) annealed to a primer 5′-CUAGAGGAUCCCCGGGCGAGCCCUAUAGUGAGUCGU-3′ (complementary sequences of the template and the primer are underlined). This substrate is end-labeled with ^33P using T4 polynucleotide kinase.
The assay conditions for the covalent His-NS4A21-32-GSGS-NS33-631 complex were 100 mM MOPS [pH 7.0], 0.5 mM MgCl2, 2 mM ATP, 0.5 mM DTT, […] BSA, 2% dimethylsulfoxide (DMSO) and 1 U RNase inhibitor (5 prime→3 prime, Inc., Boulder, Colo.). For the full length His-NS31-631/NS4A1-54 complex, the assay conditions were 100 mM PIPES [pH 6.0], 1 mM MgCl2, 2 mM ATP, 0.6 mM DTT, […] BSA and 1 U RNase inhibitor. In both reactions, 0.5 nM double stranded RNA substrate in a final volume of […] was used. The reaction was carried out at 37 ∞C. for 1 h and terminated by an addition of […] of 0.5 M EDTA. The released primer was captured using […] of 100 nM biotinylated capture oligomer (5′-biotin-GCT-CGC-CCG-GGG-ATC-CTC-TAG-3′) (Gibco/BRL, Grand Island, N.Y.) (SEQ ID NO: 123) in 2×hybridization buffer (40 mM HEPES [pH 7.3], 2M NaCl, 2 mg/ml BSA) at 37 ∞C. for 1 h. The primer-oligomer complex was retained by Streptavidin coated SPA beads (SPA, Amersham Life Science Inc., Arlington Height, Ill.), filtered and washed thoroughly with wash buffer (20 mM HEPES [pH 7.3], 15 mM NaCl, 1.5 mM sodium citrate and 0.05% SDS). The amount of the released labeled primer was quantified using a TopCount reader (Packard A991200, Meriden, Conn.).

[2] = ATPase activity, [a-32P]ATP hydrolysis by thin layer chromatography; format: biochemical
Protocol: ATPase activity of the covalent His-NS4A21-32-GSGS-NS33-631 complex (SEQ ID NO: 4) was monitored by direct measurement of [a-^32P]ATP hydrolysis using thin layer chromatography. The enzyme was incubated with 1 mM ATP mixed with [a-^32P]ATP (3000 Ci/mmol, approximately 0.5 mCi per reaction) in a reaction buffer containing 50 mM HEPES [pH 7.3], 10 mM KCl, 0.5 mM DTT, […] bovine serum albumin, fraction V (BSA), 1 mM MgCl2 in the presence or absence of 1 mM polyuridylic acid (poly U) (Pharmacia, Piscataway, N.J.) in a final volume of […]. The reaction was carried out at 37 ∞C. for 1 h and terminated by an addition of […] of 0.5 M EDTA. Half a microliter of the reaction mix was spotted onto a polyethyleneimine-cellulose sheet (SA Scientific Adsorbents Inc., Atlanta, Ga.) and developed by ascending chromatography in 0.375 M potassium phosphate buffer [pH 3.5]. The cellulose sheet was dried and quantified with a Storm 860 PhosphoImager (Molecular Dynamics, Sunnyvale, Calif.).

[3] = target: T1, helicase domain of the NS3 protein (Hepatitis C virus genotype 1b, UniProt P26663, A1092G/F1173S/K1113A/P1112Q); test: Autocleavage observed during purification; design: species or system HCV
T1 construct: N-terminal end of the NS3 protease (NS3 amino acids 3-631) via the linker GSGS; histidine tag followed by a thrombin site (N); made in house; host or cells: E. coli BL21(DE3)
Source text: Also provided are NS4A-tethered forms of NS3 full-length domain. […] To prevent autocleavage of the full-length covalent complexes, the catalytic serine residue at position 139 is mutated to alanine. The amino acid sequence of one such embodiment is defined by SEQ ID NO: 15. The mutation of the full length constructs at position 139 can also be made in the NS4A-tethered forms of the NS3 catalytic domain, and can be made in combination with any of the aforementioned mutations to increase solubility and stability while preventing autocleavage. Representative embodiments are set forth in SEQ ID NOs: 5-8, 15-18 and 20.

B1: His-NS4A21-32-GSGS-NS33-631: NS4A 21-32 tethered by GSGS to full-length NS3 residues 3-631, His tag; printed SEQ ID NO: 4 (protein)
chain: MGSSHHHHHHSSGLVPRGSHMGSVVIVGRIILSGSGSITAYSQQTRGLLGCKKTSLTGRDKNQVEGEVQVVSTATQSFLATCVNGVCWTVYHGAGSKTLAGPKGPITQMYTNVDQDLVGWQAPPGARSLTPCTCGSSDLYLVTRHADVIPVRRRGDSRGSLLSPRPVSYLKGSSGGPLLCPSGHAVGIFRAAVCTRGVAKAVDFVPVESMETTMRS
modifications: His tag
For B1, the “fold less complex required for similar percentage of unwound products vs full length His-NS31-631/NS4A1-54” value [1] was 10 fold, the “nucleic acid unwinding activity” value ([1]; FIG. 6, 37 C, 1 h, 0.5 nM dsRNA) was “proportional to the concentration of enzyme” and the “product released, fold more than equivalent concentration of full length His-NS3/NS4A1-54 complex” value ([1]; linear range of the assay, 1-10 pM enzyme) was 5-6 fold. For the same molecule, the “increase of ATP hydrolysis in the presence of poly U” value ([2]; 1 mM poly U, all enzyme concentrations examined) was 8-13 fold, the ATPase activity ([2]; FIG. 7, 1 mM ATP, 37 C, 1 h) was “poly U dependent ATPase activity which was proportional to the concentration of the enzyme” and the “ATP hydrolysis in the absence of poly U” value ([2]; no poly U) was “minimal”. For the same molecule, the “autocleavage in the helicase domain during purification” value [3] was “a considerable amount of autocleavage”.

Source: patent US6653127B1, “Single-chain recombinant complexes of hepatitis C virus NS3 protease and NS4A cofactor peptide” (Schering Corporation, priority 1997, dated 2003)
